Here are results for one molecule from PMC3561183, “Discovery of a Siderophore Export System Essential for Virulence of Mycobacterium tuberculosis” (PLoS Pathogens, 2013).

This experiment has as its target T1, Loop L1 of MmpL4 (residues 58-199) (Mycobacterium tuberculosis, UniProt P9WJV3 58-199).
T1 construct: MmpL4 of Mycobacterium tuberculosis, predicted loop L1 between TM1 and TM2, residues 58-199; also called L1 loop of MmpL4; periplasmic loop of MmpL4
T1 sequence: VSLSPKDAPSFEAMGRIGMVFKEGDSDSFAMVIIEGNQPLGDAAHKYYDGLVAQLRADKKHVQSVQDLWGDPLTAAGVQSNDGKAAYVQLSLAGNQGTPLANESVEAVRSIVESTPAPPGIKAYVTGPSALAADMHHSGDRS
Nature of the experiment: pull-down. The note with it: both partners purified.

B1: C-terminal soluble domain of MmpS4 (residues 52-140) (domain or fragment)
chain: HLTYEIFGPPGTVADISYFDVNSEPQRVDGAVLPWSLHITTNDAAVMGNIVAQGNSDSIGCRITVDGKVRAERVSNEVNAYTYCLVKSA
notes: MmpS4 (rv0451c) of Mycobacterium tuberculosis, residues 52-140: N-terminally truncated, lacks the predicted transmembrane helix; also called MmpS4_(52-140); water-soluble domain of MmpS4
In the case of B1, the binding result was “binds”.
